Measured values from paper PMC8971491, “Conformational plasticity of the HIV-1 gp41 immunodominant region is recognized by multiple non-neutralizing antibodies” (Communications Biology, 2022).

B1: Fab F240 (Fab, V domains shown)
VH: QVQLVQSGGGVVKPGASLRLACSASGFTFTDYYMSWIRQTPGKGLQWLAYITKDGSEKKYADSLQGRFAVSRDNANNLVFLQLNTVEDDDTGVYYCARDDGYYDRSGYYGVFDLWGQGIRVTVSS
VL: EFLLTQSPDSLAVTLGETATITCRSSRNILHSLNNKNYLAWYQQRPGQAPKLLVIWASMRVSGVADRFSGSGSGTDFALTISSLQPEDAAVYYCQHYYTTHRTFGQGTRVEIR
notes: immunoglobulin heavy chain variable region of F240; Ig gamma-1 chain constant region, fused after the variable region; as a Fab only part of the constant region is present; immunoglobulin light chain variable region of F240; Ig kappa chain constant region, fused after the variable region; Fab; residues numbered by Kabat convention; also called anti-gp41 Fab F240; source: HEK293T, transiently …
B2: Fab 3D6 (Fab, V domains shown)
VH: EVQLVESGGGLVQPGRSLRLSCAASGFTFNDYAMHWVRQAPGKGLEWVSGISWDSSSIGYADSVKGRFTISRDNAKNSLYLQMNSLRAEDMALYYCVKGRDYYDSGGYFTVAFDIWGQGTMVTVSS
VL: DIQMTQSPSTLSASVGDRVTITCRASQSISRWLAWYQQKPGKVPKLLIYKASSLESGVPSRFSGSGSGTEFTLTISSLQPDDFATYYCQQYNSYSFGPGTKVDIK
notes: immunoglobulin heavy chain variable region of 3D6; Ig gamma-1 chain constant region, fused after the variable region; as a Fab only part of the constant region is present; immunoglobulin light chain variable region of 3D6; Ig kappa chain constant region, fused after the variable region; Fab; residues numbered by Kabat convention; also called patient-derived near-germline antibody fragment; …

Biological target: T1, 15-mer peptide corresponding to residues 594-608 of HIV-1 gp160 (HIV-1 Consensus Subtype C Env Peptide Set) (HIV-1 consensus subtype C (stand-in: …, UniProt P04578, strain))
T1 construct: 15-mer of the HIV-1 consensus subtype C Env peptide set, corresponding to residues 594-608 of HIV-1 gp160; also called single peptide that corresponds to residues 594-608 of HIV-1 gp160; NIH HIV-1 gp41 peptide; source: bought: NIH AIDS Reagent Program, HIV-1 Consensus Subtype C Env Peptide Set (cat. No. 9499)
T1 chain: GIWGCSGKLICTTAV
Test: ELISA; 15-mer peptides adsorbed to microtiter plates at 10 ug/mL in 100 mM sodium bicarbonate pH 9.3 overnight at 4 C; Fab at 1 ug/mL in PBST-Milk, 1 hour at room temperature; goat anti-human HRP, absorbance at 450 nm
Conditions: both partners purified

| Binder | binding result |
| --- | --- |
| B1 | binds |
| B2 | binds |
